Results reported in patent publication US7033593.
“And” between values parts separate entries of the source, which are not always exact repeats. Equal values may be shown once.

What was measured:
[1] = biological target: soluble CD4 (UniProt P01730); assay: SPR, preliminary experiments
[2] = biological target: soluble CD4 (UniProt P01730); assay: SPR, gp120 over immobilised CD4
[3] = biological target: soluble CD4 (UniProt P01730); assay: SPR (BIAcore), gp120 and CD4
[4] = biological target: soluble HIV 89.6 gp120 envelope protein (HIV 89.6 (Clade B) primary isolate) (UniProt Q73372); assay: SPR SA-chip assay, 89.6 gp120 over scrDP178 surface
[5] = biological target: soluble HIV 89.6 gp120 envelope protein (HIV 89.6 (Clade B) primary isolate) (UniProt Q73372); assay: SPR SA-chip assay, gp120 over scrDP178 surface
[6] = biological target: soluble HIV 89.6 gp120 envelope protein (HIV 89.6 (Clade B) primary isolate) (UniProt Q73372)
[7] = biological target: A32-gp120 complex (HIV 89.6 gp120 bound to mab A32) (HIV 89.6 (Clade B) primary isolate) (UniProt Q73372); assay: SPR SA-chip assay (FIG. 28B)
[8] = biological target: A32-gp120 complex (HIV 89.6 gp120 bound to mab A32) (HIV 89.6 (Clade B) primary isolate) (UniProt Q73372); assay: SPR SA-chip assay, single component
[9] = biological target: soluble HIV 89.6 gp120 envelope protein (HIV 89.6 (Clade B) primary isolate) (UniProt Q73372); remark: listed apart in the source
[10] = biological target: HR-2 peptide DP178 (HIV-1 89.6)
[11] = biological target: scrambled sequence DP178 peptide; assay: SPR SA-chip assay, scrDP178 surface

For soluble, monomeric gp120 JRFL, which t1/2 of binding [1] is on record?
Its t1/2 of binding is 14 min.

And the Kd [2]?
The Kd was 146 nM.

And the koff [2]?
Its koff is 0.00088 s⁻¹.

And the Kd [3]?
Its Kd is 150 nM.

And the koff [3]?
Its koff is 0.000884 s⁻¹.

And the kon [3]?
The kon was 6000 M⁻¹ s⁻¹.

For scrambled sequence DP178 peptide, which RU (background signal) [4] is on record?
The RU (background signal) was 10 RU and 20 RU.

And the RU [5]?
Its RU is 50 RU.

What about the band density [6] of the same substance?
The band density was 0.6 ODunits/mm^2.

What about the RU [7] of the same substance?
The RU was under 200 RU.

What about the koff [8] of the same substance?
Its koff is 0.017 s⁻¹.

Which % blocking of DP178 binding [9] does the source give for mab 17b (antibody) here?
The % blocking of DP178 binding was 80%.

With “soluble HIV 89.6 gp120 envelope protein, Q73372 32-508” as the substance, how does the koff [10] read?
Its koff is 0.017 s⁻¹.

mAb 48d (antibody) was tested. Which % blocking of DP178 binding [9] did it give?
The % blocking of DP178 binding was 80%.

How did the t1/2 of binding [1] turn out when soluble, monomeric gp120 DH12 was run?
The t1/2 of binding was 25 min.

What about the Kd [2] of the same substance?
Its Kd is 96 nM.

What about the koff [2] of the same substance?
The koff was 0.00047 s⁻¹.

What about the Kd [3] of the same substance?
Its Kd is 78 nM.

What about the koff [3] of the same substance?
The koff was 0.000386 s⁻¹.

And the kon [3]?
Its kon is 4900 M⁻¹ s⁻¹.

What about the t1/2 [3] of the same substance?
Its t1/2 is 30 min.

mab 19b (antibody) was tested. Which % blocking of DP178 binding [9] did it give?
The % blocking of DP178 binding was 68%.

With mab A32 (antibody) as the substance, how does the RU (background signal) [11] read?
The RU (background signal) was 10 RU and 20 RU.
